{
  "source": "paper PMC9445180",
  "about": "(2022)",
  "key": {"HTRA3^PD/PDZ-LoopA^HTRA1": {"biological_target": "T1, HTRA3^PD/PDZ-LoopA^HTRA1 (human, UniProt P83110 130-160; P83110 171-453)", "T1 chain": "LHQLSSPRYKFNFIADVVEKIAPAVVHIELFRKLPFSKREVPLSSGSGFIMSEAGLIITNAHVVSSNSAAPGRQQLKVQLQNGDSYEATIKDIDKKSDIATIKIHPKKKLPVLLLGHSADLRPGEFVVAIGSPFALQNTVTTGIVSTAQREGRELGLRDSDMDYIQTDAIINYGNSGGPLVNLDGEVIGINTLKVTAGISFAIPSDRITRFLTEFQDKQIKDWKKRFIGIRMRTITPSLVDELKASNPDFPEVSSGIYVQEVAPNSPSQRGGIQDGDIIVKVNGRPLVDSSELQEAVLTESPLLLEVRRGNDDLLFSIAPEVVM", "experiment": "SPR"}, "HTRA2^PD/PDZ-LoopA^HTRA1": {"biological_target": "T2, HTRA2^PD/PDZ-LoopA^HTRA1 (human, UniProt O43464 134-167; O43464 178-458)", "T2 chain": "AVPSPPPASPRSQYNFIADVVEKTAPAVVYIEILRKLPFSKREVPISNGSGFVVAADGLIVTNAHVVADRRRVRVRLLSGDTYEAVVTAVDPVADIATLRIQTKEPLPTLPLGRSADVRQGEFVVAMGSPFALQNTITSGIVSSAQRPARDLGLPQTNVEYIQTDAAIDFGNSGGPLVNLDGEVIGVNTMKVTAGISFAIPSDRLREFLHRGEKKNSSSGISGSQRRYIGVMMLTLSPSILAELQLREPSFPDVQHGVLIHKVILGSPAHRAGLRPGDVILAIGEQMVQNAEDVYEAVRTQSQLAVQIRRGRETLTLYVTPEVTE", "experiment": "SPR"}},
  "data": [
    {"binder": "Fab15H6.v4 (Fab, V domains shown) VH: EVQLVQSGAEVKKPGASVKVSCKASGYKFTDSEMHWVRQAPGQGLEWIGGVDPETEGAAYNQKFKGRATITRDTSTSTAYLELSSLRSEDTAVYYCTRGYDYDYALDYWGQGTLVTVSS VL: DIQMTQSPSSLSASVGDRVTITCRASSSVEFIHWYQQKPGKAPKPLISATSNLASGVPSRFSGSGSGTDFTLTISSLQPEDFATYYCQQWSSAPWTFGQGTKVEIK", "values": [
      {"measurement": "Kd", "setting": "HTRA3^PD/PDZ-LoopA^HTRA1", "value": 0.0356, "unit": "nM"},
      {"measurement": "Kd", "setting": "HTRA2^PD/PDZ-LoopA^HTRA1", "value": 0.0526, "unit": "nM"}
    ]}
  ]
}
